Laboratory results from patent US12269859B2, “Synthetic immune receptors and methods of use thereof” (Angeles Therapeutics, Inc., priority 2016, dated 2025).

B1: 012417-I04 (protein)
chain: MALPVTALLLPLALLLHAARPLEGKPIPNPLLGLDSTGSGEDLKNVFPPEVAVFEPSKAEIAHTQKATLVCLATGFYPDHVELSWWVNGKEVHSGVCTDPQPLKEQPALNDSRYCLSSRLRVSATFWQNPRNHFRCQVQFYGLSENDEWTQDRAKPVTQIVSAEAWGRADCGITSASYHQGVLSATILYEILLGKATLYAVLVSALVLMAMVKRKDSRGRAKRSGSGATNFSLLKQAGDVEENPGPTSMALPVTALLLPLALLLHAARPDILLTQSPATLSLSPGERATLSCRASQSVDYDGDSYLNWYQQKPGQPPKLLIYDASNLVSGIPPRFSGSGSGTDFTLTISRLEPEDFAVYHCQQSTEDPWTFGGGTKLEIKGGGGSGGGGSGGGGSQVQLVESGGGLVEPGGSLRLSCMSGYAFSSYWMNWVRQMPGKGLEWMGQIWPGDGDTNYNPSLKSRVTITADESTSTAYMELSSLKAEDTAVYFCARRETTTVGRYYYAMDYWGQGTLVTVSSTREQKLISEEDGSGIQNPDPAVYQLRDSKSSDKSVCLFTDFDSQTNVSQSKDSDVYITDKCVLDMRSMDFKSNSAVAWSNKSDFACANAFNNSIIPEDTFFPSSDVPCDVKLVEKSFETDTNLNFQNLSVIGFRILLLKVAGFNLLMTLRLWSSRAKRSGSGVKQTLNFDLLKLAGDVESNPGPSRGHMTEYKPTVRLATRDDVPRAVRTLAAAFADYPATRHTVDPDRHIERVTELQELFLTRVGLDIGKVWVADDGAAVAVWTTPESVEAGAVFAEIGPRMAELSGSRLAAQQQMEGLLAPHRPKEPAWFLATVGVSPDHQGKGLGSAVVLPGVEAAERAGVPAFLETSAPRNLPFYERLGFTVTADVEVPEGPRTWCMTRKPGA
B2: 011317-B06 (protein)
chain: MALPVTALLLPLALLLHAARPLEQKLISEEDLGSGDRPDPAVYQLRDSKSSDKSVCLFTDFDSQTNVSQSKDSDVYITDKCVLDMRSMDFKSNSAVAWSNKSDFACANAFNNSIIPEDTFFPSPESSCDVKLVEKSFETDTNLNFQNLSVIGFRILLLKVAGFNLLMTLRLWSSSSRAKRSGSGVKQTLNFDLLKLAGDVESNPGPTSMALPVTALLLPLALLLHAARPDIVMTQSPATLSLSPGERATLSCRSSKSLQNVNGNTYLYWFQQKPGQSPQLLIYRMSNLNSGVPDRFSGSGSGTEFTLTISSLEPEDFAVYYCMQHLEYPITFGAGTKLEIKGGGGSGGGGSGGGGSEVQLVESGGGLVKPGGSLKLSCAASGYTFTSYVMHWVRQAPGKGLEWIGYINPYNDGTKYNEKFQGRVTISSDKSISTAYMELSSLRSEDTAMYYCARGTYYYGTRVFDYWGQGTLVTVSSTRGKPIPNPLLGLDSTGSGEDLKNVFPPEVAVFEPSEAEISHTQKATLVCLATGFYPDHVELSWWVNGKEVHSGVCTDPQPLKEQPALNDSRYCLSSRLRVSATFWQNPRNHFRCQVQFYGLSENDEWTQDRAKPVTQIVSAEAWGRADCGFTSESYQQGVLSATILYEILLGKATLYAVLVSALVLMAMVKRKDSRGRAKRSGSGATNFSLLKQAGDVEENPGPSRGHMTEYKPTVRLATRDDVPRAVRTLAAAFADYPATRHTVDPDRHIERVTELQELFLTRVGLDIGKVWVADDGAAVAVWTTPESVEAGAVFAEIGPRMAELSGSRLAAQQQMEGLLAPHRPKEPAWFLATVGVSPDHQGKGLGSAVVLPGVEAAERAGVPAFLETSAPRNLPFYERLGFTVTADVEVPEGPRTWCMTRKPGA
B3: 010417-I04 (protein)
chain: MALPVTALLLPLALLLHAARPLEGKPIPNPLLGLDSTGSGEDLKNVFPPEVAVFEPSKAEIAHTQKATLVCLATGFYPDHVELSWWVNGKEVHSGVCTDPQPLKEQPALNDSRYCLSSRLRVSATFWQNPRNHFRCQVQFYGLSENDEWTQDRAKPVTQIVSAEAWGRADCGITSASYHQGVLSATILYEILLGKATLYAVLVSALVLMAMVKRKDSRGRAKRSGSGATNFSLLKQAGDVEENPGPTSMALPVTALLLPLALLLHAARPEIVLTQSPDFQSVTPKEKVTITCRASESVDTFGISFMNWFQQKPDQSPKLLIHAASNQGSGVPSRFSGSGSGTDFTLTINSLEAEDAATYYCQQSKEVPFTFGGGTKVEIKGGGGSGGGGSGGGGSEVQLVESGGGLVQPGGSLRLSCAASGFTFSSSWMNWVRQAPGKGLEWVGRIYPGDGDTNYNGKFKGRFTISRDDSKNSLYLQMNSLKTEDTAVYYCARSGFITTVLDFDYWGQGTLVTVSSTREQKLISEEDLGSGTPFPSLAPPIMLLVDGKQQMVVVCLVLDVAPPGLDSPIWFSAGNGSALDAFTYGPSPATDGTWTNLAHLSLPSEELASWEPLVCHTGPGAEGHSRSTQPMHLSGEASTARTCPQEPLRGTPGGALWLGVLRLLLFKLLLFDLLLTCSCLCDPAGPLPSPATTTRLRALGSHRLHPATETGGREATSSPRPQPRDRRWGDTPPGRKPGSPVRAKRSGSGVKQTLNFDLLKLAGDVESNPGPSRSRGHMTEYKPTVRLATRDDVPRAVRTLAAAFADYPATRHTVDPDRHIERVTELQELFLTRVGLDIGKVWVADDGAAVAVWTTPESVEAGAVFAEIGPRMAELSGSRLAAQQQMEGLLAPHRPKEPAWFLATVGVSPDHQGKGLGSAVVLPGVEAAERAGVPAFLETSAPRNLPFYERLGFTVTADVEVPEGPRTWCMTRKPGA
B4: 011317-A06 (protein)
chain: MALPVTALLLPLALLLHAARPLEQKLISEEDLGSGDRPDPAVYQLRDSKSSDKSVCLFTDFDSQTNVSQSKDSDVYITDKCVLDMRSMDFKSNSAVAWSNKSDFACANAFNNSIIPEDTFFPSPESSCDVKLVEKSFETDTNLNFQNLSVIGFRILLLKVAGFNLLMTLRLWSSSSRAKRSGSGVKQTLNFDLLKLAGDVESNPGPTSMALPVTALLLPLALLLHAARPEIVLTQSPDFQSVTPKEKVTITCRASESVDTFGISFMNWFQQKPDQSPKLLIHAASNQGSGVPSRFSGSGSGTDFTLTINSLEAEDAATYYCQQSKEVPFTFGGGTKVEIKGGGGSGGGGSGGGGSEVQLVESGGGLVQPGGSLRLSCAASGFTFSSSWMNWVRQAPGKGLEWVGRIYPGDGDTNYNGKFKGRFTISRDDSKNSLYLQMNSLKTEDTAVYYCARSGFITTVLDFDYWGQGTLVTVSSTRGKPIPNPLLGLDSTGSGEDLKNVFPPEVAVFEPSEAEISHTQKATLVCLATGFYPDHVELSWWVNGKEVHSGVCTDPQPLKEQPALNDSRYCLSSRLRVSATFWQNPRNHFRCQVQFYGLSENDEWTQDRAKPVTQIVSAEAWGRADCGFTSESYQQGVLSATILYEILLGKATLYAVLVSALVLMAMVKRKDSRGRAKRSGSGATNFSLLKQAGDVEENPGPSRGHMTEYKPTVRLATRDDVPRAVRTLAAAFADYPATRHTVDPDRHIERVTELQELFLTRVGLDIGKVWVADDGAAVAVWTTPESVEAGAVFAEIGPRMAELSGSRLAAQQQMEGLLAPHRPKEPAWFLATVGVSPDHQGKGLGSAVVLPGVEAAERAGVPAFLETSAPRNLPFYERLGFTVTADVEVPEGPRTWCMTRKPGA
B5: 022817-L08 (protein)
chain: MALPVTALLLPLALLLHAARPDIVMTQSPATLSLSPGERATLSCRSSKSLQNVNGNTYLYWFQQKPGQSPQLLIYRMSNLNSGVPDRFSGSGSGTEFTLTISSLEPEDFAVYYCMQHLEYPITFGAGTKLEIKLEEQKLISEEDLGSGEDLKNVFPPEVAVFEPSKAEIAHTQKATLVCLATGFYPDHVELSWWVNGKEVHSGVCTDPQPLKEQPALNDSRYCLSSRLRVSATFWQNPRNHFRCQVQFYGLSENDEWTQDRAKPVTQIVSAEAWGRADCGITSASYHQGVLSATILYEILLGKATLYAVLVSALVLMAMVKRKDSRGRAKRSGSGATNFSLLKQAGDVEENPGPTSMDWIWRILFLVGAATGAHSFEEVQLVESGGGLVKPGGSLKLSCAASGYTFTSYVMHWVRQAPGKGLEWIGYINPYNDGTKYNEKFQGRVTISSDKSISTAYMELSSLRSEDTAMYYCARGTYYYGTRVFDYWGQGTLVTVSSTREQKLISEEDLGSGIQNPDPAVYQLRDSKSSDKSVCLFTDFDSQTNVSQSKDSDVYITDKCVLDMRSMDFKSNSAVAWSNKSDFACANAFNNSIIPEDTFFPSSDVPCDVKLVEKSFETDTNLNFQNLSVIGFRILLLKVAGFNLLMTLRLWSSRAKRSGSGVKQTLNFDLLKLAGDVESNPGPSRGHMTEYKPTVRLATRDDVPRAVRTLAAAFADYPATRHTVDPDRHIERVTELQELFLTRVGLDIGKVWVADDGAAVAVWTTPESVEAGAVFAEIGPRMAELSGSRLAAQQQMEGLLAPHRPKEPAWFLATVGVSPDHQGKGLGSAVVLPGVEAAERAGVPAFLETSAPRNLPFYERLGFTVTADVEVPEGPRTWCMTRKPGA
B6: 041416-U01 (protein)
chain: MALPVTALLLPLALLLHAARPDIVLTQSPATLSLSPGDRATISCRASESVTILGSHLIYWYQQKPGQPPRLLIQLASNVQTGVPARFSGSGSRTDFTLTISSVEPEDFAVYYCLQSRTIPRTFGQGTKLEIKRLEGKPIPNPLLGLDSTGSGEDLKNVFPPEVAVFEPSKAEIAHTQKATLVCLATGFYPDHVELSWWVNGKEVHSGVCTDPQPLKEQPALNDSRYCLSSRLRVSATFWQNPRNHFRCQVQFYGLSENDEWTQDRAKPVTQIVSAEAWGRADCGITSASYHQGVLSATILYEILLGKATLYAVLVSALVLMAMVKRKDSRGRAKRSGSGATNFSLLKQAGDVEENPGPTSMDWIWRILFLVGAATGAHSFEQVQLVQSGPEVKKPGESVKISCKASGYTFRHYSMNWVKQAPGQGLKWMGRINTESGVPIYADDFKGRFSFTVDTSASTAYLEISSLTSEDTAVYFCSNDYLYSLDFWGQGTTLTVSSTREQKLISEEDGSGTPFPSLAPPIMLLVDGKQQMVVVCLVLDVAPPGLDSPIWFSAGNGSALDAFTYGPSPATDGTWTNLAHLSLPSEELASWEPLVCHTGPGAEGHSRSTQPMHLSGEASTARTCPQEPLRGTPGGALWLGVLRLLLFKLLLFDLLLTCSCLCDPAGPLPSPATTTRLRALGSHRLHPATETGGREATSSPRPQPRDRRWGDTPPGRKPGSPVRAKRSGSGVKQTLNFDLLKLAGDVESNPGPSRGHMTEYKPTVRLATRDDVPRAVRTLAAAFADYPATRHTVDPDRHIERVTELQELFLTRVGLDIGKVWVADDGAAVAVWTTPESVEAGAVFAEIGPRMAELSGSRLAAQQQMEGLLAPHRPKEPAWFLATVGVSPDHQGKGLGSAVVLPGVEAAERAGVPAFLETSAPRNLPFYERLGFTVTADVEVPEGPRTWCMTRKPGA
modifications: Polynucleotide encoding a Synthetic Immune Receptor (SIR)

Tested on: target antigen-expressing cell line
Experiment: Jurkat NFAT-GFP assay, coculture with target cell lines expressing the respective target antigen (summary Table 10A)
Type: cell-based, human
Parameters: key: The signs +/−, +, 2+ etc. after the name of the cell lines indicate the relative degree of positivity on the Jurkat-NFAT-GFP assay as measured by the % GFP positive cells; +: relative degree of positivity on the Jurkat-NFAT-GFP assay as measured by the % GFP positive cells; 2+: relative degree of positivity on the Jurkat-NFAT-GFP assay as measured by the % GFP positive cells
Conditions: relative % GFP positive cells; for NFAT-GFP ASSAY Positive Cell lines: RAJI: SIR-expressing Jurkat-NFAT-GFP cells cocultured with RAJI; for NFAT-GFP ASSAY Positive Cell lines: NALM6: SIR-expressing Jurkat-NFAT-GFP cells cocultured with NALM6
Summary of the method: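 Read-out: % GFP+ cells by FACS. SIR-transduced, puromycin-selected Jurkat NFAT-GFP (IL-2 promoter reporter) cocultured ~4–18 h with target line, E:T ~1:2; parental cells as control; graded +/−, +, 2+ relative to parental.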

| Molecule | NFAT-GFP ASSAY Positive Cell lines: RAJI | NFAT-GFP ASSAY Positive Cell lines: NALM6 | NFAT-GFP ASSAY Positive Cell lines: L363 (SIR-expressing Jurkat-NFAT-GFP cells cocultured with L363) | NFAT-GFP ASSAY Positive Cell lines: U266 (SIR-expressing Jurkat-NFAT-GFP cells cocultured with U266) |
| --- | --- | --- | --- | --- |
| B1 | RAJI (+/−) |  |  |  |
| B2 |  | (2+) |  |  |
| B3 | RAJI (+), NALM6 | (+/−) |  |  |
| B4 | RAJI (2+), NALM6 | (2+) |  |  |
| B5 |  | (2+) |  |  |
| B6 |  |  | L363 (2+), U266 | (2+) |
